Consider 125 sequences from the supplement of paper PMC9112550, “Optimization of the antimicrobial peptide Bac7 by deep mutational scanning” (BMC Biology, 2022).

The series concerns Escherichia coli TOP10. Put plainly: shrunken log2 fold change of peptide-encoding DNA abundance (4.5 h post-induction vs induction); higher = less antimicrobial activity (less host growth inhibition). To be noted: time post-induction: 4.5 h; library: site-saturation at positions 5, 18, 19, 20.
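Note: peptides expressed intracellularly from a pBAD plasmid library in pooled LB shake-flask culture, induced with 0.3% L-arabinose, DNA abundance read by NGS, three biological replicates, DESeq2 with apeglm shrinkage.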

For the sequence RRIRCRPPRLPRPRPRPAVFPRP, the “shrunken log2 fold change” value is -0.127. With RRIRERPPRLPRPRPRPQTYPRP, the “shrunken log2 fold change” value is -1.1. Consider RRIRGRPPRLPRPRPRPEPEPRP, for which the “shrunken log2 fold change” value was 1.51. On to RRIRCRPPRLPRPRPRPRLWPRP, for which the “shrunken log2 fold change” value worked out at 1.01. The result for RRIRYRPPRLPRPRPRPSGDPRP reads -0.514; that for RRIRKRPPRLPRPRPRPENHPRP, -0.229. For RRIRLRPPRLPRPRPRPSWRPRP, the “shrunken log2 fold change” value came out at 0.276. On to RRIRARPPRLPRPRPRPDDPPRP, for which the “shrunken log2 fold change” value is 0.632. As to RRIRARPPRLPRPRPRPCRCPRP, the “shrunken log2 fold change” value turned out to be 0.0187. Take RRIRTRPPRLPRPRPRPFRFPRP: the “shrunken log2 fold change” value was -0.00476.

With RRIRPRPPRLPRPRPRPEPAPRP, the “shrunken log2 fold change” value came out at 0.572. The figure for RRIRKRPPRLPRPRPRPGVFPRP is 0.417; for RRIRPRPPRLPRPRPRPINKPRP it is -0.641. The result for RRIRLRPPRLPRPRPRPLKQPRP reads -0.0926.

As for RRIRVRPPRLPRPRPRPWHVPRP, the “shrunken log2 fold change” value is -0.0616.

RRIRNRPPRLPRPRPRPHTLPRP: the “shrunken log2 fold change” value was -0.39. Turning to RRIRERPPRLPRPRPRPSAWPRP, the “shrunken log2 fold change” value is 0.0177.

As for RRIRTRPPRLPRPRPRPQQFPRP, the “shrunken log2 fold change” value is -0.0175.

As to RRIRWRPPRLPRPRPRPESDPRP, the “shrunken log2 fold change” value turned out to be 0.59. The figure for RRIRRRPPRLPRPRPRPQTHPRP is 0.361. Take RRIRSRPPRLPRPRPRPSPDPRP: the “shrunken log2 fold change” value is -0.218. The result for RRIRCRPPRLPRPRPRPAYKPRP reads -0.093. The result for RRIRYRPPRLPRPRPRPGGTPRP reads -0.0623; that for RRIRTRPPRLPRPRPRPYSAPRP, -0.206; that for RRIRSRPPRLPRPRPRPQVPPRP, 0.299. Turning to RRIRNRPPRLPRPRPRPIQLPRP, the “shrunken log2 fold change” value was -0.203.

In the case of RRIRFRPPRLPRPRPRPTCFPRP, the “shrunken log2 fold change” value was -0.157. As for RRIRQRPPRLPRPRPRPIMEPRP, the “shrunken log2 fold change” value was -0.0496.

With RRIRNRPPRLPRPRPRPSSKPRP, the “shrunken log2 fold change” value is -0.244. Regarding RRIRQRPPRLPRPRPRPSATPRP, the “shrunken log2 fold change” value is 0.0854. The result for RRIRQRPPRLPRPRPRPADFPRP reads -0.193. Take RRIRNRPPRLPRPRPRPVKYPRP: the “shrunken log2 fold change” value is -0.288. Take RRIRVRPPRLPRPRPRPMKIPRP: the “shrunken log2 fold change” value is -0.232. As to RRIRDRPPRLPRPRPRPFAEPRP, the “shrunken log2 fold change” value was 0.242. With RRIRERPPRLPRPRPRPPSRPRP, the “shrunken log2 fold change” value was found to be 0.577.

On to RRIRMRPPRLPRPRPRPENKPRP, for which the “shrunken log2 fold change” value was found to be 1.48.

Turning to RRIRNRPPRLPRPRPRPEQSPRP, the “shrunken log2 fold change” value was determined as 0.338. In the case of RRIRKRPPRLPRPRPRPFCTPRP, the “shrunken log2 fold change” value is -0.0968. For the sequence RRIRNRPPRLPRPRPRPARLPRP, the “shrunken log2 fold change” value worked out at 0.184. For RRIRWRPPRLPRPRPRPPFPPRP, the “shrunken log2 fold change” value stood at 0.37. On to RRIRTRPPRLPRPRPRPDCEPRP, for which the “shrunken log2 fold change” value was 0.0084.

Take RRIRARPPRLPRPRPRPFMRPRP: the “shrunken log2 fold change” value worked out at 0.59. As to RRIRHRPPRLPRPRPRPQSQPRP, the “shrunken log2 fold change” value is -0.127. On to RRIRTRPPRLPRPRPRPIKLPRP, for which the “shrunken log2 fold change” value is -0.412. The figure for RRIRGRPPRLPRPRPRPMKFPRP is 0.0112. Take RRIRKRPPRLPRPRPRPEAIPRP: the “shrunken log2 fold change” value was 0.101. RRIRLRPPRLPRPRPRPAEVPRP: the “shrunken log2 fold change” value was -0.193. Turning to RRIRIRPPRLPRPRPRPQQNPRP, the “shrunken log2 fold change” value was -0.318. Turning to RRIRERPPRLPRPRPRPTKDPRP, the “shrunken log2 fold change” value is -0.239. Take RRIRDRPPRLPRPRPRPTIRPRP: the “shrunken log2 fold change” value stood at 0.124. As to RRIRHRPPRLPRPRPRPPGEPRP, the “shrunken log2 fold change” value was determined as 0.418. The result for RRIRWRPPRLPRPRPRPRCYPRP reads -0.0698. In the case of RRIRSRPPRLPRPRPRPQMAPRP, the “shrunken log2 fold change” value was found to be 0.0615. RRIRCRPPRLPRPRPRPAAWPRP: the “shrunken log2 fold change” value turned out to be 0.252.

In the case of RRIRMRPPRLPRPRPRPSYKPRP, the “shrunken log2 fold change” value was -0.296. Turning to RRIRSRPPRLPRPRPRPQTSPRP, the “shrunken log2 fold change” value is -0.157. On to RRIRARPPRLPRPRPRPYHFPRP, for which the “shrunken log2 fold change” value was -0.186. In the case of RRIRDRPPRLPRPRPRPRDQPRP, the “shrunken log2 fold change” value came to 0.477.

Consider RRIRMRPPRLPRPRPRPGLPPRP, for which the “shrunken log2 fold change” value came out at 0.955. Turning to RRIRRRPPRLPRPRPRPMQRPRP, the “shrunken log2 fold change” value came out at 0.24. For RRIRIRPPRLPRPRPRPNSGPRP, the “shrunken log2 fold change” value is -0.177. As for RRIRERPPRLPRPRPRPKSNPRP, the “shrunken log2 fold change” value was -0.472. Consider RRIRDRPPRLPRPRPRPRVGPRP, for which the “shrunken log2 fold change” value came out at 0.972.

Turning to RRIRWRPPRLPRPRPRPAPYPRP, the “shrunken log2 fold change” value was -0.0336. On to RRIRHRPPRLPRPRPRPIIFPRP, for which the “shrunken log2 fold change” value was -0.249. The figure for RRIRGRPPRLPRPRPRPWYQPRP is 0.0417; for RRIRMRPPRLPRPRPRPVWYPRP it is -0.0263.

On to RRIRYRPPRLPRPRPRPNPKPRP, for which the “shrunken log2 fold change” value is -0.0294. As for RRIRPRPPRLPRPRPRPQDFPRP, the “shrunken log2 fold change” value was -0.0957.

In the case of RRIRKRPPRLPRPRPRPCGQPRP, the “shrunken log2 fold change” value turned out to be 0.0682. As to RRIRIRPPRLPRPRPRPHTRPRP, the “shrunken log2 fold change” value is -0.35.

For RRIRARPPRLPRPRPRPAGHPRP, the “shrunken log2 fold change” value stood at 0.398. The result for RRIRGRPPRLPRPRPRPDRDPRP reads 0.326; that for RRIRHRPPRLPRPRPRPTDRPRP, 0.0577; that for RRIRLRPPRLPRPRPRPGLFPRP, 0.157. With RRIRRRPPRLPRPRPRPQGEPRP, the “shrunken log2 fold change” value was determined as 0.373. For the sequence RRIRNRPPRLPRPRPRPMICPRP, the “shrunken log2 fold change” value was 0.0101. In the case of RRIRVRPPRLPRPRPRPYEAPRP, the “shrunken log2 fold change” value is -0.157. For RRIRGRPPRLPRPRPRPCTGPRP, the “shrunken log2 fold change” value came to 0.11. As for RRIRLRPPRLPRPRPRPRPDPRP, the “shrunken log2 fold change” value was determined as 0.177. With RRIRQRPPRLPRPRPRPNRIPRP, the “shrunken log2 fold change” value was -0.0402. In the case of RRIRFRPPRLPRPRPRPFPWPRP, the “shrunken log2 fold change” value was -0.211.

As for RRIRNRPPRLPRPRPRPDCIPRP, the “shrunken log2 fold change” value is -0.194. Regarding RRIRARPPRLPRPRPRPKARPRP, the “shrunken log2 fold change” value stood at 1.16. With RRIRSRPPRLPRPRPRPRDEPRP, the “shrunken log2 fold change” value came out at 0.242. As to RRIRYRPPRLPRPRPRPSFVPRP, the “shrunken log2 fold change” value was -0.714. Take RRIRCRPPRLPRPRPRPQKLPRP: the “shrunken log2 fold change” value is -0.188. The figure for RRIRFRPPRLPRPRPRPHQEPRP is -0.0079; for RRIRSRPPRLPRPRPRPAPAPRP it is 0.741. The figure for RRIRGRPPRLPRPRPRPCPNPRP is 0.0353; for RRIRKRPPRLPRPRPRPWIDPRP it is -0.00174; for RRIRHRPPRLPRPRPRPMTIPRP it is -0.081. On to RRIRCRPPRLPRPRPRPVMMPRP, for which the “shrunken log2 fold change” value was -0.214. On to RRIRGRPPRLPRPRPRPWDWPRP, for which the “shrunken log2 fold change” value came to 1.2. With RRIRTRPPRLPRPRPRPHPFPRP, the “shrunken log2 fold change” value was -0.00172.

Turning to RRIRCRPPRLPRPRPRPSNDPRP, the “shrunken log2 fold change” value was -0.451. RRIRMRPPRLPRPRPRPKYDPRP: the “shrunken log2 fold change” value came out at 0.114. Take RRIRHRPPRLPRPRPRPHALPRP: the “shrunken log2 fold change” value amounted to 0.0244.

For the sequence RRIRMRPPRLPRPRPRPKDDPRP, the “shrunken log2 fold change” value was 2.12. The result for RRIRPRPPRLPRPRPRPIMRPRP reads -0.0819; that for RRIRPRPPRLPRPRPRPMDHPRP, 0.0131.

For the sequence RRIRFRPPRLPRPRPRPADDPRP, the “shrunken log2 fold change” value is -0.053. As for RRIRCRPPRLPRPRPRPYNKPRP, the “shrunken log2 fold change” value was -1.02. Regarding RRIRVRPPRLPRPRPRPTHAPRP, the “shrunken log2 fold change” value was found to be 0.285. The figure for RRIRPRPPRLPRPRPRPRHAPRP is 0.502; for RRIRTRPPRLPRPRPRPMMSPRP it is -0.282.

Regarding RRIRKRPPRLPRPRPRPHDHPRP, the “shrunken log2 fold change” value was -0.162. The figure for RRIRKRPPRLPRPRPRPKQTPRP is 0.00774; for RRIRLRPPRLPRPRPRPQPHPRP it is 0.077; for RRIRGRPPRLPRPRPRPQGNPRP it is 0.236.

On to RRIRDRPPRLPRPRPRPIVMPRP, for which the “shrunken log2 fold change” value is -0.0257.

Regarding RRIRLRPPRLPRPRPRPQTAPRP, the “shrunken log2 fold change” value came to 0.0246.

Take RRIRYRPPRLPRPRPRPVSNPRP: the “shrunken log2 fold change” value was -1.07. As for RRIRWRPPRLPRPRPRPCIDPRP, the “shrunken log2 fold change” value is -0.0447. In the case of RRIRSRPPRLPRPRPRPPYMPRP, the “shrunken log2 fold change” value is -0.316. On to RRIRFRPPRLPRPRPRPRQYPRP, for which the “shrunken log2 fold change” value is -0.465. In the case of RRIRFRPPRLPRPRPRPQADPRP, the “shrunken log2 fold change” value was determined as 0.0728.

As to RRIRYRPPRLPRPRPRPNCHPRP, the “shrunken log2 fold change” value is -0.507. For RRIRPRPPRLPRPRPRPAQCPRP, the “shrunken log2 fold change” value is 0.148. The figure for RRIRIRPPRLPRPRPRPWVFPRP is -0.397; for RRIRRRPPRLPRPRPRPTLYPRP it is 0.595.

On to RRIRPRPPRLPRPRPRPLCYPRP, for which the “shrunken log2 fold change” value was -0.488. For RRIRNRPPRLPRPRPRPDNVPRP, the “shrunken log2 fold change” value is -0.0161. As for RRIRNRPPRLPRPRPRPGHMPRP, the “shrunken log2 fold change” value is -0.147. On to RRIRERPPRLPRPRPRPCVIPRP, for which the “shrunken log2 fold change” value is -0.0272.
